This is an account of results in US20150191542A1 (INNATE PHARMA S A, published 2015).

Substitutions are numbered along the chain they refer to.

Assay [1] deals with T1, recombinant human MICA extracellular domain recombinant-Fc protein (MICA*019 allele) (human, UniProt Q29983 24-297).
T1 construct: Bought from R&D Systems; also called MICA*019-Fc; MICA-Fc; not shown: Fc part of the bought fusion protein (R&D Systems)
T1 chain: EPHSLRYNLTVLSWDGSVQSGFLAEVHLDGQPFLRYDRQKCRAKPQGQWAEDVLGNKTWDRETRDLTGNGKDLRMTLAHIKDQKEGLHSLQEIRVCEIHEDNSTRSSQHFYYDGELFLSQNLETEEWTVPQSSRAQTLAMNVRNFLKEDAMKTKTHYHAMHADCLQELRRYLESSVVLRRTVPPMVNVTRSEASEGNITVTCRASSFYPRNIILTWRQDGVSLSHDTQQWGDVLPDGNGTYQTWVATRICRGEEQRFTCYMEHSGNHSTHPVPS
The assay is described as follows: SPR Biacore T100, biotinylated antibody captured on CAP chip, MICA protein injected. The procedure:
(§1) The binding of 9C10, 20C6 and 16A8 to either recombinant human MICA extracellular domain recombinant protein monomers or dimers (MICA*019 allele-Fc protein or MICA*001-His protein) as well as other NKG2D ligands MICB and ULBP1-2 was analyzed by Surface Plasmon Resonance (SPR) using a Biacore T100 apparatus to obtain monovalent and bivalent affinity, respectively. Biotinylated anti-MICA antibodies were injected at a constant rate of 10 μl/min over the Sensor Chip CAP flow-cells comprising Biotin CAPture Reagent. MICA-Fc or MICA-His protein, MICB-Fc, ULBP1-Fc or ULBP2-Fc protein is then injected successively (range of concentrations between 0.01-100 nM), with regeneration between injections, and in increasing order over two flowcells simultaneously. Curves are fitted using Biacore T100 Evaluation software.
(§2) (a) General Biacore T100 methods. SPR measurements were performed on a Biacore T100 apparatus (Biacore GE Healthcare) at 25° C. In all Biacore experiments HBS-EP+ buffer (Biacore GE Healthcare) or 10 mM sodium acetate pH 7.4, 150 mM NaCl, 0.05% P20 served as running buffer and sensorgrams were analyzed with Biaevaluation 4.1 and Biacore T100 Evaluation software. Recombinant human and mouse TLR3 were purchased from R&D Systems.

Assay [2] has as its target T2, MICA*001 extracellular domain α3 recombinant protein (human, UniProt Q29983 205-297).
T2 construct: also called MICA extracellular domain α3 recombinant protein; α3 domain of MICA
T2 sequence: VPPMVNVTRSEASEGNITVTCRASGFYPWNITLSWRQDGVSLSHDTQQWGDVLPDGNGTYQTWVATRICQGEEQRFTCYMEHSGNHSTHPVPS
The assay is described as follows: ELISA, 3 µg/ml recombinant protein coated. Here is the method: 3 μg/ml of the indicated MICA recombinant proteins were coated overnight in 96-well plates in PBS 1× at 4° C. All subsequent steps were performed at room temperature. After washes with PBS 1×/Tween 0.05%, plates were saturated for an additional 2 hours in PBS 1×/BSA 1%. Two additional washes were performed prior adding the tested anti-MICA mAb in PBS 1×/BSA 1% for 2 hours. Antibodies were washed and a horseradish peroxidase conjugated goat polyclonal anti-mouse IgG (GAM-HRP) in PBS 1×/BSA 1% was added for 1 hour. Final washing steps were performed and TMB substrate was added to reveal the ELISA (5 to 20 min in the dark) and 1M HCl was added to stop the enzymatic reaction. O.D. was measured at 450 nm.
9C10 binds to MICA extracellular domain recombinant-protein but not MICA extracellular domain α3 recombinant protein. Antibody 16A8, however, bound to both MICA extracellular domain recombinant protein […] MICA extracellular domain α3 recombinant protein. Therefore, it can be concluded from this ELISA experiment that the binding site on MICA of 9C10 antibodies includes the α1 and/or α2 domains while antibody 16A8 binds to MICA within the α3 domain. […] BAMO1 is a commercially available anti-MICA specific for α1α2 domain and BAMO3 is a commercially available anti-MICA specific for α3 domain.
Background: In an ELISA, binding on a coated surface is turned into a signal by an enzyme label.

Assay [3] deals with T3, MICA*004 expressed on C1R transfectant cells (human, UniProt Q29983 24-297, Glycosylated on cells; the letters do not carry this.).
T3 construct: also called C1R-MICA*004; C1R-MICA*04
T3 chain: T1 chain with L122V, T181R, I213T, R251Q
Briefly: flow cytometry, MFI against antibody concentration on C1R-MICA*04 cells. The procedure:
The binding of antibodies obtained from the first and second immunization series (including 9C10, 20C6 and 16A8) were tested for binding to MICA-expressing CR1 transfectant cells C1R-MICA*001, C1R-MICA*004, C1R-MICA*007 and C1R-MICA*008 (Pr. A. Steinle, Eberhard-Karls University Tuebingen, Germany) described in Salih et al. (2003) Blood 102(4): […]. Binding was analyzed by flow cytometry.
Cells were harvested and stained in PBS 1×/BSA 0,2%/EDTA 2 mM buffer during 30 minutes at 4° C. using a dose-range of the anti-MICA mAbs. After two washes in staining buffer, cells were stained for 30 min at 4° C. with goat anti-mouse (H+L)-PE polyclonal antibodies (1/200). After two washes, stainings were acquired on a BD FACS Canto II and analyzed using the FlowJo software.
For orientation: In flow cytometry, cells or beads pass a laser one at a time.

The next assay addresses T4, ULBP2-Fc protein (UniProt Q9BZM5 26-217, limits assumed).
T4 construct: also called ULPB2; not shown: Fc part
T4 sequence (looked up): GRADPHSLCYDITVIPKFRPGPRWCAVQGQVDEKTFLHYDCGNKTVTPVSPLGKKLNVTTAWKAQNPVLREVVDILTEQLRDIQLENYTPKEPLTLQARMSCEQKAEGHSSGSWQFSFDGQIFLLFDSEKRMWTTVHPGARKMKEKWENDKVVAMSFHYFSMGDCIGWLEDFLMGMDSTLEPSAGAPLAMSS
Briefly: SPR Biacore T100, biotinylated antibody captured on CAP chip, Fc protein injected. Here is the method: as §1, §2
(Surface plasmon resonance follows binding to a sensor surface in real time, without labels.)

B1: antibody 16A8 (antibody, V domains shown)
VH: EVQLVESGGGLVKPGGSLKLSCAASGFTFSRYAMSWVRQTPEKRLEWVATIFSGGSYTYYPDSVKGRFTISRDNANNTLYLQMSSLKAEDTAMYFCARPNWERTFDYWGQGTTLTVSS
VL: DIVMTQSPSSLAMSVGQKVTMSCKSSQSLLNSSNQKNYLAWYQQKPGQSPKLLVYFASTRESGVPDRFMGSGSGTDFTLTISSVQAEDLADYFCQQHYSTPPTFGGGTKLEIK
notes: Murine hybridoma antibody of IgG2a isotype as tested; also called 16A8-Biot
Take B1: the binding result in assay [1] is “binds”.

B2: antibody 9C10 (antibody, V domains shown)
VH: QVQLQQPGAELVRPGTSVNLSCKASGYSFTRYWMNWVKQRPGQGLEWIGMIHPSDSETRLNQKFKDKATLTVDKSSSTAYMQLSSPTSEDSAVYYCGYGNFFYVMDYWGQGTSVTVSS
VL: DILLTQSPAILSVSPGERVSFSCRASQSIGTSIHWYQQRTNGSPRLLIKFASESISGIPSRFSGSGSGTDFTLNINSVESEDIADYYCQQSNFWPFTFGSGTKLEVK
modifications: Biotinylated when captured in the SPR assays (9C10-Biot); the sites are not given.
notes: Murine hybridoma antibody of IgG2b isotype as tested; also called 9C10-Biot
Broadly, the EC50 (read off the curve) is the concentration at which the effect is half-maximal. Low readings indicate an effect from little substance, high ones a need for much substance. Turning to B2, the results for the binding result (in assay [2]; with ULBP2-Fc protein) were “no binding” and “no binding (tested: 0.01-100 nM)”, respectively. In assay [3], the concentration giving a half-maximal response (EC50 (read off the curve)) was ~0.2 µg/mL.
